Experiment [1] deals with T1, mouse EphA4-Fc (R&D Systems) (mouse, UniProt Q03137 20-547). The experiment in a line: SPR. For orientation: SPR reads the build-up and loss of mass on a sensor chip optically.
Experiment [2] addresses T2, EphA4 ligand-binding domain (human, amino acids 22-203) (human, UniProt P54764 22-203, biotin on primary amines (EZ link NHS biotin) in the AlphaScreen assays only). Nature of the experiment: SPR.
The target in experiment [3] is T3, human EphA4-Fc (R&D Systems) (human, UniProt P54764 20-547). Nature of the experiment: SPR.
T3 sequence (P54764 20-547): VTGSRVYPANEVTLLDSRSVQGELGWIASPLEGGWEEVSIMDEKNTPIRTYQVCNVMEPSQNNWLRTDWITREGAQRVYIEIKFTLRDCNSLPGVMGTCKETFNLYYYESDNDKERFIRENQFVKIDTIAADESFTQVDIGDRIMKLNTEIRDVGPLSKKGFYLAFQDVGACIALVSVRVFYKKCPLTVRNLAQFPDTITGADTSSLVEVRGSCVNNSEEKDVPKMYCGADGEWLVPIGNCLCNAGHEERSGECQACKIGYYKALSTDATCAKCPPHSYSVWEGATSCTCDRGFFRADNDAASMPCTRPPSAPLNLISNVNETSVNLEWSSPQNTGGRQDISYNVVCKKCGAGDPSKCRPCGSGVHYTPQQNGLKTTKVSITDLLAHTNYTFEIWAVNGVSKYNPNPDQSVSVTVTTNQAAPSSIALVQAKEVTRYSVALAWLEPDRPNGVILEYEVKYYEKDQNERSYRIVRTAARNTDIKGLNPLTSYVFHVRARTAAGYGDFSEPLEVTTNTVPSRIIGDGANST
Experiment [4] addresses T2, EphA4 ligand-binding domain (human, …). The experiment in a line: SPR; kd1.
Experiment [5] shares this target. Nature of the experiment: SPR; kd2.
In experiment [6] the target is T3, human EphA4-Fc (R&D Systems). Nature of the experiment: SPR. The source holds these as a separate data set.
The target of experiment [7] is T1, mouse EphA4-Fc (R&D Systems). The experiment in a line: SPR. The source holds these as a separate data set.
For experiment [8] the target is unchanged. Nature of the experiment: SPR; kd1.
The target in experiment [9] is T3, human EphA4-Fc (R&D Systems). The experiment in a line: SPR; kd1.
In experiment [10] the target is T1, mouse EphA4-Fc (R&D Systems). Nature of the experiment: SPR; kd2.
The target in experiment [11] is T3, human EphA4-Fc (R&D Systems). The experiment in a line: SPR; kd2.

T2 sequence (P54764 22-203): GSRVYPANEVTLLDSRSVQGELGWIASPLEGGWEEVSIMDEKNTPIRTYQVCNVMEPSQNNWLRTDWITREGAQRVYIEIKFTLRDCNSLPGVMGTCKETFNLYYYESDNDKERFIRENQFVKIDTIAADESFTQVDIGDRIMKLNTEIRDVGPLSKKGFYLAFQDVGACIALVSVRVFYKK
T1 sequence (Q03137 20-547): as the sequence (P54764 20-547) above, with P59A, N121S, V124G, R250Q, S251N, T270S, K378R, N406S counted along it

B1: Nb 60 (VHH)
VHH: QVQLQESGGGLVQPGGSLRLSCAASGFTFSRYWIYWVRQAPGKQRELVAAITRNGVTNYADSVKGRFTISTDDNKNTVYLQMNSLKSEDTAVYYCNAWGFLLGDIEDYWGQGTQVTVSS
modifications: biotin on primary amines (EZ link NHS biotin) in the Eph receptor selectivity AlphaScreen only
On to B1, for which the Kd in experiment [1] was 27.4 nM; in experiment [2], 37 nM; in experiment [3], 39.6 nM. Moreover, the koff in [4] came out at 0.115 s⁻¹; in [5] it was 0.00018 s⁻¹; in [6] it was 0.0488 s⁻¹.

B2: Nb 57 (VHH)
VHH: QVQLQESGGGLVQPGGSLRLSCAASGFTFSSYYMYWVRQAPGKGLEWVSTINTGGGSTNYADSVKGRFIISRDNAKNTVYLQMNSLKPEDTAVYYCNAFAAGWGPDYWGQGTQVTVSS
modifications: biotin on primary amines (EZ link NHS biotin) in the Eph receptor selectivity AlphaScreen only
B2: the Kd in [1] came to 37.8 nM; in experiment [2], 57.5 nM; in experiment [3], 38.3 nM. Further, the koff was 0.257 s⁻¹ in experiment [4], 0.00133 s⁻¹ in experiment [5], 0.288 s⁻¹ in [7] and 0.229 s⁻¹ in experiment [6].

B3: Nb 19 (VHH)
VHH: QVQLQESGGGLVQPGGSLRLSCAATGRNFNAYSIAWFRQAPGKEREFVASINWSGSNTYYAVAVKGRFTTSRDNAKNTVYLQMNSLKPEDTAVYYCNAFAAGWGPDYWGQGTQVTVSS
Regarding B3, the Kd in [1] turned out to be 1140 nM; in experiment [2] it was 507 nM; in [3], 852 nM. The koff in experiment [4] was found to be 0.108 s⁻¹; in [5] it was 0.0289 s⁻¹; in [7], 0.135 s⁻¹; in experiment [6], 0.091 s⁻¹.

B4: Nb 34 (VHH)
VHH: QVQLQESGGGLVQAGGSLRLSCAASGFTFSSYAMSWVRQAPGKGLEWVSGINTGGGSTYYADSVKGRFTISRDNAKNTLYLQMNSLKSEDTAVYYCVPRVGVLEGLTSFGSWGQGTQVTVSS
Consider B4, for which the Kd in experiment [1] amounted to 26900 nM; in experiment [3], 18000 nM. In addition, the koff in [8] is 0.345 s⁻¹; in experiment [9], 0.168 s⁻¹; in experiment [10] it was 0.0226 s⁻¹; in [11], 0.0121 s⁻¹.

B5: Nb 39 (VHH)
VHH: QVQLQESGGGLVQPGGSLKLSCAASGFTFSTYAMSWVRQAPGKGLEWVSRINSGGGYTWHADSVKGRFTISRDNARNTVYLQMNNLKPEDTAVYYCTNLNTGWRPEYWGQGTQVTVSS
modifications: biotin on primary amines (EZ link NHS biotin) in the Eph receptor selectivity AlphaScreen only
For B5, the Kd was determined as 23.6 nM in experiment [1], 56.6 nM in experiment [2] and 30.1 nM in experiment [3]. Further, the koff in [4] worked out at 0.0607 s⁻¹; in experiment [5], 0.00186 s⁻¹; in experiment [7] it was 0.0158 s⁻¹; in experiment [6], 0.0291 s⁻¹.

B6: Nb 22 (VHH)
VHH: QVQLQESGGGPVRAGESLRLSCTASGRAFSTYTMGWFRQAPGKERELVAVITPGGNTNYADSVKGRFTISRDDAKNTVYLQMNSLKPVDTAVYYCHVVLAVVGTGNEYDVWGQGTQVTVSS
modifications: biotin on primary amines (EZ link NHS biotin) in the Eph receptor selectivity AlphaScreen only
Consider B6, for which the Kd in experiment [1] came to 104 nM; in experiment [2] it was 54.1 nM; in experiment [3], 47.1 nM. Besides, the koff in experiment [4] turned out to be 0.0143 s⁻¹; in [5], 0.00255 s⁻¹; in [7] it was 0.023 s⁻¹; in experiment [6], 0.0148 s⁻¹.

B7: Nb 50 (VHH)
VHH: QVQLQESGGGLVQAGGSLRLSCAASGRTFNSYAEAWFRQAPGKEREMIAAVTKAGTTNYANPVKGRFTISRDDAKNMVYLQMNNLKPEDSAVYYCNAISPLWDEYDFWGPGTQVTVSS
modifications: biotin on primary amines (EZ link NHS biotin) in the Eph receptor selectivity AlphaScreen only
In the case of B7, the Kd came out at 104 nM in experiment [1], 87.3 nM in experiment [2] and 64.2 nM in [3]. For the same molecule, the koff in experiment [4] was 0.192 s⁻¹; in [9], 0.168 s⁻¹; in experiment [5], 0.00062 s⁻¹; in [11] it was 0.0022 s⁻¹; in experiment [7], 0.114 s⁻¹.

B8: Nb 53 (VHH)
VHH: QVQLQESGGGVVQAGGSLRLSCAASGRAFSSYAMGWFRQAPGTKREMIAAVTRAGTTNYANPVKGRFTISRDDAKNMVYLQMNNLKPEDSAVYYCNAISPLWDEYDFWGPGTQVTVSS
modifications: biotin on primary amines (EZ link NHS biotin) in the Eph receptor selectivity AlphaScreen only
On to B8, for which the Kd in [1] came to 22.8 nM; in experiment [2], 45.7 nM; in [3], 22.6 nM. For the same molecule, the koff is 0.0594 s⁻¹ in [4], 0.00213 s⁻¹ in [5], 0.0244 s⁻¹ in experiment [7] and 0.0156 s⁻¹ in experiment [6].

B9: Nb 31 (VHH)
VHH: QVQLQESGGGLVQAGGSLRLSCAASGFASDAYAIGWFRQAPGTKREMIAAVTKAGATNYANPVKGRFTISRDDAKNMVYLQMNNLKPEDSAVYYCNAISPLWDEYDFWGPGTQVTVSS
modifications: biotin on primary amines (EZ link NHS biotin) in the Eph receptor selectivity AlphaScreen only
B9: the Kd in experiment [1] was determined as 258 nM; in experiment [2] it was 293 nM; in [3], 175 nM. The koff turned out to be 0.151 s⁻¹ in [8]; 0.155 s⁻¹ in experiment [4]; 0.2 s⁻¹ in experiment [9]; 0.0115 s⁻¹ in experiment [10]; 0.00676 s⁻¹ in [5]; 0.0105 s⁻¹ in experiment [11].

As usually defined, the Kd is the free concentration of one partner at which half of the binding sites on the other are occupied at equilibrium, for simple one-to-one binding. Low readings indicate higher affinity, high ones lower affinity. As usually defined, the koff is the rate constant with which the complex falls apart. A high value points to a short-lived complex.
